Data reported in patent publication US20260274955A1 (JANUX THERAPEUTICS, published 2026).

Legend:
[1] = biological target: Anti-CD28 Fab (SEQ ID NOs: 202, 203); experiment: phage binding ELISA on captured Fab, competitor CD28 antigen;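 also: clonal phage supernatant binding in wells preincubated with CD28 antigen in blocking buffer, detected by HRP-conjugated anti-M13 antibody ELISA, compared with blocking buffer alone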
Procedure: (§1) Clonal phage were harvested as crude supernatants and screened via standard ELISAs. […] Prior to the addition of clonal phage, wells were incubated with blocking buffer and CD28 antigen or blocking buffer alone. Without washing or aspirating, clonal phage supernatants were then added to the wells and incubated for a short time. Wells were then washed followed by detection of bound phage using a horse radish conjugated anti-M13 antibody.

[2] = biological target: Anti-CD28 Fab (SEQ ID NOs: 202, 203); experiment: phage binding ELISA on captured Fab;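 also: clonal phage supernatants added briefly to wells pre-incubated with CD28 antigen or with blocking buffer only, then washed, bound phage read by ELISA using HRP-coupled anti-M13 antibody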
Procedure: as §1

Sequence of Anti-CD28 Fab (SEQ ID NOs: 202, 203) (VH, as listed by the source, chain 1 of 2): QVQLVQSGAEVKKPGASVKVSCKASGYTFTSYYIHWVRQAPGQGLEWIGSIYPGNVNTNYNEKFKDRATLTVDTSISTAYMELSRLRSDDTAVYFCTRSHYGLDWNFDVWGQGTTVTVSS
Sequence of Anti-CD28 Fab (SEQ ID NOs: 202, 203) (VL, as listed by the source, chain 2 of 2): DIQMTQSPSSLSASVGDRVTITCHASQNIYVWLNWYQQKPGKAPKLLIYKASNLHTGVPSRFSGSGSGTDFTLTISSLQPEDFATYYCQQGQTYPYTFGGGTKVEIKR

Binder | Anti-CD28 Fab signal in the presence of CD28 [1] | Anti-CD28 Fab (SEQ ID NOs: 202, 203) signal [2]
YCDGHTGMYISKCL [Phage-774] | 0.06 | 0.98
YCEGHSAIYIAKCM [Phage-772] | 0.11 | 0.98
YCSGHVPEYMEKCL [Phage-787] | 0.06 | 0.94
YCEGHDIRYMMKCL [Phage-785] | 0.08 | 0.95
YCEGHVPEYLVKCL [Phage-778] | 0.06 | 0.96
YCAGHAAEYMWKCL [Phage-776] | 0.06 | 0.97
YCAGHTPEYLDKCL [Phage-784] | 0.06 | 0.95
YCDGHIPQYVEKCL [Phage-788] | 0.08 | 0.94
YCAGHAEIYMQKCL [Phage-789] | 0.05 | 0.93
YCQGHFPQYMAKCL [Phage-777] | 0.07 | 0.97
YCFGHFPEYMAKCL [Phage-773] | 0.07 | 0.98
YCDGHEERYMAKCL [Phage-786] | 0.06 | 0.94
YCDGHLPEYMLKCL [Phage-780] | 0.09 | 0.96
YCDGHLPEYMEKCL [Phage-880] | 0.07 | 0.43
YCAGHLDVYMSKCL [Phage-781] | 0.09 | 0.96
YCSGHSWAYIGKCL [Phage-775] | 0.07 | 0.98
YCEGHAHEYMEKCV [Phage-790] | 0.07 | 0.93
YCAGHASEYLQKCL [Phage-881] | 0.06 | 0.43
YCDGHSKEYMSKCL [Phage-779] | 0.07 | 0.96
YCDGHIKEYMSKCL [Phage-799] | 0.08 | 0.91
YCDGHSGEYMSKCL [Phage-819] | 0.06 | 0.82
